According to the supplement of paper PMC9170038:

System: MS2 coat protein
Assay: apparent KD of MS2 coat protein; higher = weaker reporter binding
Settings: Eterna round: R107
Method in brief: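 Values are apparent KD, taken as the median for each design of fits to normalised binding curves from individual clusters. The designed RNA switches were transcribed on-chip from Illumina sequencing clusters and exposed to SNAP-549-labelled MS2 coat protein at twofold increasing amounts from 0.7 or 1.5 nM to 3 µM. Titration used 100 mM Tris-HCl pH 7.5, 80 mM KCl and 4 mM MgCl2, without or with constant ligand.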

[1] = input ligand: theophylline 20 uM
[2] = input ligand: tryptophan 2.4 mM
[3] = input ligand: theophylline 2 mM

Row | Sequence | apparent KD of MS2 coat protein (input ligand: arginine 13.2 mM) [nM] | apparent KD of MS2 coat protein [1] [nM] | apparent KD of MS2 coat protein [2] [nM] | apparent KD of MS2 coat protein [3] [nM] | apparent KD of MS2 coat protein (input ligand: none) [nM]
1 | CGCUACGUAACUGAUACCAGUGUACUGACAUGAGGAUCACCCAUGUUGGGUUUUGUUGUACACCCUUGGCAGCAGAAUCGUAGCG [AstrosExyTheB#13] | 58.7 | 79.2 | 61.3 |  | 
2 | CGGAGUAUGACGGCCGCCACUUGCCGGGCGCAGCUGGCUGCUUGACAUGAGGAUCACCCAUGUCCAAGGACCGGGUCAUUCCUCG [theeternabot_sameState_MS2_Trp_B_37] | 59.4 | 145 |  | 189 | 
3 | CGGCCCUCACAUGAGGAUCACCCAUGUGAUACCAGCCUGGAAACAGGCCCUUGGCAGCACAGGUCAUCAAAAGAUGACCAAGCCG [TheoAX 21 #SwitchBubble] | 15.1 | 20.5 | 11.8 |  | 
4 | CGGGUUCGGGCGGCCGCCACUAUGAUUAGGUGUGGGUGUGUUGUGUUACAUGAGGAUCACCCAUGUAGGACCGGGUUUGGGCUUG [Sturgeon] | 33.4 | 84.5 | 57.4 | 28.3 | 52.6
5 | CGGUAGGUAGGUCGAUAUCUACCCGUAGAAGGAGCGUAAGAAAAUACAGGUAGGUCGCUACGGUACAUGAGCAUCAGCCAUGUCC [SSArg A #13 Alt-Ms2] | 10.5 | 15.2 | 13.1 | 11.7 | 11.7
6 | CGGUAUGGGACGGCCGCCACUAUUAUGUAACAAAAUAAACAUGAGGAUCACCCAUGUACAUGGGAUAGGACCGGGUCCUAUAGCG [#23 Same State - Tryptophan B] | 19.8 | 70.9 | 17.7 | 133 | 55.7
7 | CGUAUUGGAAACAGUACGAGUGAUCCGGUCCGAGGACCGGUACGGCCGCCACUCGAAAUAAAUAAACAUGAGGAUCACCCAUGUA [Ex Tryptophan A 9] | 14.1 | 18.2 |  | 21.9 | 
8 | CUAAAUAUAACGGCCGCCACUUACUCAUGAGGUAACAACAUGAGGAUCACCCAUGUUUGAGGAUCAAGGACCGGGUUAUAUUUAG [AstrosSSTry#22] | 26.5 | 38.1 |  | 30.2 | 
9 | CUAAGAGUUACGGCCGCCACUAGUUGGGAUCCGCCCGUAAAAUCACAUGAGGAUCACCCAUGUCCUAGGACCGGGUAAUCGCAUU [theeternabot_sameState_MS2_Trp_B_31] | 110 | 616 |  | 499 | 
10 | CUACAUUUGUAGAAACCGGUCAACAAUAAUCGAGGACCGGUACGGCCGCCACUCGAUGUGAAAUCACAUGAGGAUCACCCAUGUA [Tryptophan A 18] | 18.9 | 23.8 |  | 19.8 | 
11 | CUACAUUUGUAGAAACCGGUCAACAAUAAUCGAGGACCGGUACGGCCGCCACUCGAUGUGUUAUACACAUGAGGAUCACCCAUGU [Tryptophan A 14] | 21.7 | 24.7 |  | 22.9 | 
12 | CUACAUUUGUAGAAACCGGUCAACAUUAUUCGAGGACCGGUACGGCCGCCACUCGUAUAUUUUUAUACAUGAGGAUCACCCAUGU [Tryptophan A 7] | 14.4 | 14.4 |  | 13 | 
13 | CUACAUUUGUAGAAACCGGUCACCGUUACUCGAGGACCGGUACGGCCGCCACUCGUGUCACGUGAUACAUGAGGAUCACCCAUGU [Tryptophan A 11] | 28.9 | 45.7 |  | 54.8 | 
14 | CUAUAAGUACCGGUCCUCAGAUCCUCAUGACGAGGACCGGUACGGCCGCCACUCGAAACAUGAGGAUCACCCAUGUAAUAAUAUC [Brourdmod13] | 18.6 | 43.4 |  | 44.1 | 
15 | CUAUAAGUAGCGGCCGCCACUUACUCAUGAGGUAACAACAUGAGGAUCACCCAUGUUUGAGGAUCAAGGACCGGGCUAUUUAUAG [AstrosSSTryB#9] | 24.7 | 32.6 | 17.6 | 31.5 | 28.7
16 | CUAUAGAUAAGAAGGAGCGACAUGAGGAUCACCCAUGUCUACCACGUCGAAAGACGCUCAUGUCAGGUAGGUCGCUUAUUUAUAG [Astros-Eli-mod7] | 71.1 | 99.2 | 84.1 | 129 | 117
17 | CUAUAUAGAAAACUAUAUAGAGUGGGUGAACGAGGACCGGUACGGCCGCCACUCGGACAUGAGGAUCACCCAUGUCCAUGUGAAA [AstrosExyTryA#25] | 13.1 | 13 | 29.4 | 25 | 14.8
18 | CUAUAUGGAAACAUAUAGACGCAAAAGCGACGAGGACCGGUACGGCCGCCACUCGAAGAGUGGUGGACAUGAGGAUCACCCAUGU [Design 3 MOD] | 38.3 | 73.1 | 58.5 | 58.9 | 54.6
19 | CUAUGCAGGUCGGCCGCCACUACACACAUGAGGAUCACCCAUGUAGUUACUGGGUGAAGUGGCAGUAGGACCGGGACCUGCACAC [Brourdmod18] | 150 | 458 | 431 | 619 | 436

Row | Sequence | apparent KD of MS2 coat protein (input ligand: arginine 13.2 mM) [nM] | apparent KD of MS2 coat protein [1] [nM] | apparent KD of MS2 coat protein [2] [nM] | apparent KD of MS2 coat protein [3] [nM] | apparent KD of MS2 coat protein (input ligand: none) [nM]
20 | CUCAUCCACGCGGCCGCCACUAUUUUUAGGUGUGGGUGUGACGUAUUACAUGAGGAUCACCCAUGUAGGACCGGGCGUGGAUGAG [Walrus] | 117 | 414 |  | 491 | 
21 | CUCCCGUGAGCGGCCGCCACUGGAGGCUUUGCGCGACAUGAGGAUCACCCAUGUGUGCCCGGCGUUAGGACCGGGUUCGCGUGAG [#1 Same State - Tryptophan B Attempt #16 (HarryS)] | 8.8 | 13.9 | 11.2 | 11.2 | 12.3
22 | CUGACGAGCUUUUUGUCAGGUUGUGUAGAUACCAGUUCUCUGGUGAACCCUUGGCAGCUAACAACAUGAGGAUCACCCAUGUGAU [theeternabot_exclusion_MS2_Theo_A_33] | 38.5 | 96.5 | 69.8 |  | 
23 | CUGCCACGAACGGCCGCCACUUACAUGAGGAUCACCCAUGUGCCUGCGCACAAAGAAUGUCAAGAAAGGACCGGGUUCAAAUAGU [theeternabot_exclusion_MS2_Trp_B_41] | 43.2 | 177 |  | 132 | 
24 | CUGCCAUGCAGAGAUACCAGUGAGCCCAGAACAUGAGGAUCACCCAUGUACGCCGCAGACCACCCUUGGCAGCUCUGCAUGGCAG [#$@$%] | 12.7 | 16.8 | 10.9 | 6.75 | 12.9
25 | CUGCCAUGCAGAGAUACCAGUGAGCCCAUAACAUGAGGAUCACCCAUGUACGCCGCAGACCACCCUUGGCAGCUCUGCAUGGCAG [&#$*@] | 21.7 | 18.4 | 16.6 | 11.4 | 17.4
26 | CUGCCAUGCAGAGAUACCAGUGAGCUCAUAACAUGAGGAUCACCCAUGUACGCCGCAGAUCACCCUUGGCAGCUCUGCAUGGCAG [!#*@)] | 8.21 | 11.5 | 9.83 | 10.1 | 9.18
27 | CUGCCAUGCAGAGAUACCAGUGCGCUCAGCACAUGAGGAUCACCCAUGUAGGAUGCCAAUCACCCUUGGCAGCUCUGCAUGGCAG [~`&)_] | 15.5 | 22.8 | 16.3 | 12.8 | 15.7
28 | CUGCCUGCCUCACAUGAGGAUCACCCAUGUCGAGGACCGGUACGGCCGCCACUCGUCGUCGGUAAUACAGGCAUUGAAUAAUAUA [Esgeusla] | 9.88 | 14.5 |  | 11.9 | 
29 | CUGCUACAUACGGCCGCCACUUUAAACAUGAGGAUCACCCAUGUACGGAAGGGUGGUAAAUGUUAAAGGACCGGGUAUGUAGCAA [Tryp B Ex t1] | 64.4 | 296 |  | 293 | 
30 | CUUAUUUGCUGAAGGAGCGCCCGAGGAGAAGACAUGAGGAUCACCCAUGUAUAUAGUAUAUGGCAGGUAGGUCGCGGUGGGUAGG [Arginine B Same State; Euphoria Solution 3] | 28.1 | 65 | 26.9 | 31.2 | 30
31 | CUUGACAUGAGGAUCACCCAUGUUGGUAAACGAGGACCGGUACGGCCGCCACUCGGUUACGUGUAGUACCGGUAAGAUCCAGGGU [Default title] | 24.8 | 42.6 |  | 39 | 
32 | CUUGAGACAUGAGGAUCACCCAUGUCCGAAGGAGCGUGCGAAAGCACAGGUAGGUCGCGGACAUGAGGAUCACCCAUGUGAGCGA [EAA NP+V+V2 #7 DOUBLE] | 13.8 | 25.9 | 22 | 40.2 | 21.8
33 | CUUGGCUGUGCGGCCGCCACUGGCUCAUCCUGCAUUACAUGAGGAUCACCCAUGUUGCGGCCUCCCAGGACCGGGCAUAGCCUGA [Usesties] | 127 | 702 |  | 684 | 
34 | GAACAUGAGGAUCACCCAUGUUAAACAGAUACCAGUGAUAUAAUACACCCUUGGCAGCUGAAGCUGAAUAAUAAUUCCCUCAAGC [#21 SameState-TheophyllineA] | 13.4 | 17 | 10.5 |  | 
35 | GAAUAAAGUAGAACACAAGACUCCUGAGAAGGAGCGCAGUCAACUGCAGGUAGGUCGCUCAGGAACACAUGAGGAUCACCCAUGU [Disoonlate] | 16.9 | 30.4 | 23.9 | 32.3 | 26.6
36 | GAAUUUAUUUGAAGGAGCGUCGAAAAUGGGUAAACAUGAGGAUCACCCAUGUAAAGGGAACGACAGGUAGGUCGCAAAUGGAUUC [AstromonsSSArgB#27] | 126 | 259 | 188 | 224 | 206
37 | GACCCAUGAGUUGCAAAAGCUCAUGGGUCGCGAGGACCGGUACGGCCGCCACUCGGCUGUACAUGAGGAUCACCCAUGUCAGGGU [#1 Same State - Tryptophan A Attempt #26 (HarryS)] | 54.4 | 615 |  | 845 | 
38 | GACUAACAUGAGGAUCACCCAUGUGAAGAUACCAGUAAUUUCACCUACCCUUGGCAGCUUUUUUUGAACGGCCUGAAUGCCUUGU [theeternabot_sameState_MS2_Theo_A_14] | 12.2 | 17.5 | 11.9 |  | 
